Test results published in PMC3601957, “Structural Basis of Rap Phosphatase Inhibition by Phr Peptides” (PLoS Biology, 2013).

Legend:
[1] = biological target: T1, RapF (Bacillus subtilis, UniProt P71002); assay: Thermal-shift peptide binding assay, wild-type RapF; set-up: species or system B. subtilis; details: peptide 1 mM, PhrA and PhrE: unpublished data
T1 construct: 6xHis (N, cleaved yes); made in house; host or cells: Escherichia coli BL21 RIL
T1 sequence (P71002 whole entry, looked up): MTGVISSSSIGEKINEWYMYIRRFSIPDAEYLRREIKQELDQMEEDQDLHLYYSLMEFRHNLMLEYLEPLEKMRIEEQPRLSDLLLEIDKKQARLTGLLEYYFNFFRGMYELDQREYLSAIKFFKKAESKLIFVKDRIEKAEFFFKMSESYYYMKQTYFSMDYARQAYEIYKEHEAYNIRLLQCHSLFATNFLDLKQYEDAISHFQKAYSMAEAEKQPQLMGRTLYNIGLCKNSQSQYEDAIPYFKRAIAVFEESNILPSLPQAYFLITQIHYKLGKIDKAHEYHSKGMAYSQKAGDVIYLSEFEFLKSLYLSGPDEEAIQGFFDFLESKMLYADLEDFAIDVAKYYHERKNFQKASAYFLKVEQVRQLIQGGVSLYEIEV
Procedure: The thermal-shift assay was conducted in a 7500 Fast Real-time PCR System (Applied Biosystems). Final melt conditions were 20 mM Tris-HCl (pH 8), 100 mM NaCl, 20 µM RapF, and 5× SYPRO Orange (Sigma-Aldrich). The final concentration of the inhibitory peptides was 1 mM when they were present. The assays were carried out at a final volume of 20 µl in 96-well PCR plates. Samples were heated at 1°C/min. Fluorescent intensity was plotted versus temperature and integrated with the GraphPad Prism 4 software using a Boltzmann model to calculate melting temperatures.

[2] = biological target: T1, RapF; assay: Limited proteolysis with trypsin, wild-type RapF; assay type: biochemical, B. subtilis; details: wild-type RapF 1.5 mg/ml, peptide 1 mM, trypsin 1:10,000, 37°C, 0-90 min, SDS-PAGE / native PAGE (60 min); PhrA and PhrE: unpublished data
Procedure: Wild-type RapF and mutant variants (RapF^E303K, RapF^E303A, RapF^N227A, and RapF^D194A) at a concentration of 1.5 mg/ml were pre-incubated in lysis buffer (10 mM Tris-HCl [pH 8], 0.1 mM EDTA, 1 mM β-mercaptoethanol, 100 mM NaCl, 5% glycerol, and 5 mM CaCl2) in the presence (1 mM) or absence of inhibitory peptides at room temperature for 30 min. The protein was subjected to proteolysis by trypsin (1∶10,000) at 37°C and aliquots of the reaction mixture were taken after 0, 10, 30, and 90 min of incubation, mixed with SDS–PAGE loading buffer and immediately boiled to stop the enzyme reaction. Samples were then separated on 12% acrylamide SDS–PAGE and stained with Coomassie brilliant blue. For the peptide titration experiments, RapF was incubated in lysis buffer with increasing concentrations of PhrF at room temperature for 30 min and subjected to limited proteolysis with trypsin(1∶10,000) at 37°C for 60 min. The reactions were stopped SDS–PAGE loading buffer and analyzed by SDS–PAGE.

[3] = test system: RapA; details: cited from earlier work
Description: The RNPP family of Gram-positive quorum sensors presents a characteristic C-terminal TPR domain with seven TPR repeats for the structurally known Raps (RapF and RapH) (Figures 1E and S3),[31]. The RapF TPR domain folded in a large superhelix to generate a pseudo circular structure that was closed in a wide channel (8,588 Å^3, calculated by the CASTp software) by the interaction of the terminal part of TPR7 (and the following C-terminal tail) with the initial part of TPR1 (Figure 1). As a channel, the generated ring-like structure was open on both faces (Figures S4, upper panel) ... || Peptide anchoring should be independent of its sequence. Thus, it is primarily mediated by interactions with the peptide main chain. These interactions are mainly polar in nature and involve the side chain hydrogen bonds and salt bridges of Tyr66, Tyr152, Gln183, Arg223, Asn227, Gln263, and Asp338 with the PhrF backbone (Figure 2). Additionally, the conserved Arg at position 2 of the Phr peptides is anchored by a salt bridge with the side chain of a conserved Asp residue (Asp194 in RapF) from TPR3 (Figure 2). […] The conserved asparagine in the RNPP family (Asn227 in RapF) interacts with the PhrF backbone and supports the key role of this residue in peptide accommodation.

[4] = biological target: T2, RapF^E303K (B. subtilis, UniProt P71002 1-381, E303K); assay: native gel or EMSA; titration on 8% native gel; 20 µg protein, peptide 50 nM to 1.2 mM in 20 µl buffer A, 15 min at room temperature; midpoint of the transition taken as the apparent Kd; details: both partners purified
T2 construct: RapF of Bacillus subtilis with Glu303 changed to Lys, made from pPROEX-RapF by site-directed mutagenesis; Same construct as m1 with the point mutation; also called RapF Glu303Lys; source: E. coli BL21 RIL, purified as native RapF; not shown: His6, N-terminal, cleaved
T2 sequence: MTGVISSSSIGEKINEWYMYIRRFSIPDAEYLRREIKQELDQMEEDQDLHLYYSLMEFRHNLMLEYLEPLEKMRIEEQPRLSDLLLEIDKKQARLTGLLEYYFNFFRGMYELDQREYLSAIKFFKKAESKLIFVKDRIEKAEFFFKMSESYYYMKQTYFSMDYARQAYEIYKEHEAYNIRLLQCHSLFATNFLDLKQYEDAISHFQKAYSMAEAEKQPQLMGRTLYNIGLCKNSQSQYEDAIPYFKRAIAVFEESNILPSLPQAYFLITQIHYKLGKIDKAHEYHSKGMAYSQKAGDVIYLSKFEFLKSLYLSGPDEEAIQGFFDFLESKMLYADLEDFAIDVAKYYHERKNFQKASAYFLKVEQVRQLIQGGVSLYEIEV

[5] = biological target: T3, RapF^D194A (B. subtilis, UniProt P71002 1-381, D194A)
T3 sequence: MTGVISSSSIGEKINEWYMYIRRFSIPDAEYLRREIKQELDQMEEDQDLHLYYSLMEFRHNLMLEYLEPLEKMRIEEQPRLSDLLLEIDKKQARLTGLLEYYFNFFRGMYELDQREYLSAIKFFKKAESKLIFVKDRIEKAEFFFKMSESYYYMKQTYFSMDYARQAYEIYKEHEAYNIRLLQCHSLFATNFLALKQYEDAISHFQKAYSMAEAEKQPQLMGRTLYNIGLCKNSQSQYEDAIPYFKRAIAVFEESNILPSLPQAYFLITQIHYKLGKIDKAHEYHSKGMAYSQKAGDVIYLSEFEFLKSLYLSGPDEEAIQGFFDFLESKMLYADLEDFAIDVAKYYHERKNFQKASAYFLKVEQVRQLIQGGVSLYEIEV

[6] = biological target: T4, RapF^N227A (B. subtilis, UniProt P71002 1-381, N227A)
T4 sequence: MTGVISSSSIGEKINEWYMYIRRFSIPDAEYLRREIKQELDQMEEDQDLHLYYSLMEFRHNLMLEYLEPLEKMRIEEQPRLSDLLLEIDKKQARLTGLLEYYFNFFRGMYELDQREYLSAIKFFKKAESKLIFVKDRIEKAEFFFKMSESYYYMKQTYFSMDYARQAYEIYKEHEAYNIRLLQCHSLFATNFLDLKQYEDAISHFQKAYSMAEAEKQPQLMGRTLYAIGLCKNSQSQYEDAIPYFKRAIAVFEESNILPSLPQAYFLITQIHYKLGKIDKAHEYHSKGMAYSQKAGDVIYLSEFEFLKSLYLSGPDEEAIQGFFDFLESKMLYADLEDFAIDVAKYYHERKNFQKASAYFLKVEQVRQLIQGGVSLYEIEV

[7] = biological target: T5, RapF (B. subtilis, UniProt P71002 1-381); assay: native gel or EMSA; titration on 8% native gel; 20 µg protein, peptide 50 nM to 1.2 mM in 20 µl buffer A, 15 min at room temperature; midpoint of the transition taken as the apparent Kd; details: both partners purified
T5 construct: RapF of Bacillus subtilis, amplified from genomic DNA and cloned in pPROEX-HTa; The text speaks of residues up to Val381, which fits the whole protein; also called wild-type RapF; native RapF; source: E. coli BL21 RIL, purified (HisTrap, TEV digestion, Superdex 200); not shown: His6, N-terminal, cleaved
T5 sequence: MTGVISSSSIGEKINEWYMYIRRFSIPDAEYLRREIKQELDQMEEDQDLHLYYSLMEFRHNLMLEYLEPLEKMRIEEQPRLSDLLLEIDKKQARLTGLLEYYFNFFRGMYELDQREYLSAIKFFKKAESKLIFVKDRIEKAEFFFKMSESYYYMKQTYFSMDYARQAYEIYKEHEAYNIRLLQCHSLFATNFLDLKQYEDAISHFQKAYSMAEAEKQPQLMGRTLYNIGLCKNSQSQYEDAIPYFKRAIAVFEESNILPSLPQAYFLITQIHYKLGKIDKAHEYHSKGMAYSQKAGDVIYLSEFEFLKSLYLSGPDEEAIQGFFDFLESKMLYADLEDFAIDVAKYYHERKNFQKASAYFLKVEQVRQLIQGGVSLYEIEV

[8] = biological target: T6, RapF^E303A (B. subtilis, UniProt P71002 1-381, E303A); assay: as above; details: both partners purified
T6 construct: RapF of Bacillus subtilis with Glu303 changed to Ala, made from pPROEX-RapF by site-directed mutagenesis; Same construct as m1 with the point mutation; also called RapF Glu303Ala; source: E. coli BL21 RIL, purified as native RapF; not shown: His6, N-terminal, cleaved
T6 sequence: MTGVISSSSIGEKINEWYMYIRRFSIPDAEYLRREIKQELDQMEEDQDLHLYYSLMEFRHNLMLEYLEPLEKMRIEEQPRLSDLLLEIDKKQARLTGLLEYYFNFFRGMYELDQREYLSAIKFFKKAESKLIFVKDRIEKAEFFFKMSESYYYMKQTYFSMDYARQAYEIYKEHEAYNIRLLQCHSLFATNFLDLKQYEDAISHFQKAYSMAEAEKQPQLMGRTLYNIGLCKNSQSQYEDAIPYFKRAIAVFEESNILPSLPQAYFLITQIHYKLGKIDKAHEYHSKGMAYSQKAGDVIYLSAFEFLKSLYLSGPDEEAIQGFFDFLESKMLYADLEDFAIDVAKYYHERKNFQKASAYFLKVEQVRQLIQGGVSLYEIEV

[9] = biological target: T5, RapF; assay: thermal-shift assay (SYPRO Orange); 20 µM RapF, peptides 1 mM; 20 mM Tris-HCl pH 8, 100 mM NaCl; heated at 1°C/min; details: both partners purified

In the case of “PhrA: PhrA, inhibitor peptide of RapA; non RapF partner peptide (ARNQT)”, the “thermal stabilization by peptide” value [1] is listed as “presented identical melting transitions to those observed in the absence of peptide”, the “protection of RapF against trypsin digestion” value [2] is listed as “did not protect against trypsin attack” and the “sensitivity of RapA Asp192 and His260 mutants to peptide” value ([3]; RapA Asp192 and His260 mutants, Spo0F∼P dephosphorylation unaffected) is listed as “insensitive to the inhibitory activity of PhrA”. The “binding to RapA Tyr224 or His260 to alanine mutants” value ([3]; RapA Tyr224Ala or His260Ala, no effect on enzymatic activity) was “completely abolishes the capacity to bind PhrA”, the “binding to RapA mutant, Asn to Ala (position of RapF Asn227)” value ([3]; RapA mutant, intact capacity to bind Spo0F) was “impaired capacity to bind the PhrA peptide” and the “requirement for inhibition of RapA” value [3] was “requirement of the free terminal carboxylate group”. The “sensitivity of RapA mutants at positions of RapF Tyr226 and Leu230” value ([3]; functional RapA variants) was “completely insensitive to the PhrA peptide”.

With “PhrE: PhrE, non RapF partner peptide (SRNVT)” the “thermal stabilization by peptide” value [1] was “presented identical melting transitions to those observed in the absence of peptide” and the “protection of RapF against trypsin digestion” value [2] was “did not protect against trypsin attack”.

B1: PhrC (peptide)
peptide: ERGMT
notes: mature active form of the PhrC precursor; also called PhrC peptide; RapC (PhrC) peptide
B1 gave a Kd [4] of 19.6 µM.

B2: PhrF (peptide)
peptide: QRGMI
notes: mature active form of the PhrF precursor; The purchase from Genescript is stated for the crystallisation; no other source is named; also called PhrF peptide; source: bought: Genescript
In the case of B2, the Kd [5] is reported as > 1200 µM, the Kd [6] is reported as > 1200 µM and the Kd [7] is reported as 3.1 µM. The Kd [4] was 13.2 µM, the Kd [8] was 29 µM and the “increment in the melting temperature of RapF with PhrF” value [9] was ~20 °C.
